# Source: publication PMC6820745, “Structural and thermodynamic basis for the recognition of the substrate-binding cleft on hen egg lysozyme by a single-domain antibody” (Scientific Reports, 2019)
# B1: D3-L11 Y52A (VHH)
# VHH: DVQLVESGGGSVQAGGSLRLSCAASGSTDSIEYMTWFRQAPGKAREGVAALATHTGNTYYTDSVKGRFTISQDKAKNMAYLRMDSVKSEDTAIYTCGATRKYVPVRFALDQSSYDYWGQGTQVTVSS
# notes: as the VHH chain of m2 with the stated change; source: E. coli BL21(DE3), purified (Ni-NTA, SEC)
# Tests used:
# Details in all cases: both partners purified
# [1] = molecular target: T1, hen egg lysozyme (Gallus gallus (hen), UniProt P00698); test: ITC; iTC200; 25 °C; PBS; VHH (10 uM) in the cell titrated with HEL (100 uM); 1:1 binding model
# T1 construct: hen egg lysozyme (lysozyme C), bought from Wako Pure Chemical; also called HEL; source: bought: Wako Pure Chemical (Cat. No. 126-02671), used without further purification
# [2] = molecular target: T1, hen egg lysozyme; test: SPR; as a1, but KD from the responses in equilibrium (Scatchard plot, 1:1 model); HEL immobilised; 25 °C; PBS with 0.005% Tween 20
# [3] = molecular target: T1, hen egg lysozyme; test: SPR; Biacore T200; HEL immobilised on CM5 chip (200 RU); VHH flowed over; 25 °C; PBS with 0.005% Tween 20; global fit to a 1:1 binding model
# Method in brief: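 Binding of the His6-tagged single-domain antibody, expressed in E. coli BL21(DE3) and purified by Ni-NTA and size-exclusion chromatography, was measured by surface plasmon resonance on a Biacore T200 against hen egg lysozyme immobilised on a CM5 chip (200 RU). Runs were at 25 °C in PBS with 0.005% Tween 20, with 300 s contact, 600 s dissociation and regeneration in 1.0 M Arg-HCl pH 4.4. Antibody concentrations were adjusted per mutant. Kd, kon and koff came from global fitting to a 1:1 binding model in BiaEvaluation.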
# [4] = molecular target: T1, hen egg lysozyme; test: SPR; HEL immobilised; measured at several temperatures; van't Hoff analysis (non-linear regression); PBS with 0.005% Tween 20; KD given for 25 °C from the van't Hoff free energy
# [5] = molecular target: T1, hen egg lysozyme; test: as above; remark: listed apart in the source
# T1 sequence (P00698 19-147): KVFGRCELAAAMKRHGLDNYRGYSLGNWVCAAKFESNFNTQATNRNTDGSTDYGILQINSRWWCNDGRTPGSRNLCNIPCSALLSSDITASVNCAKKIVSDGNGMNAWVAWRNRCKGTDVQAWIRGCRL
binder,measurement,setting,value
B1,ddH against WT antibody (ITC),[1],38.1 ± 5.86 kJ/mol
same,Kd,[2],0.144 ± 0.022 µM
same,Kd,[3],0.0461 µM
same,koff,[3],0.128 s⁻¹
same,kon,[3],2.77e+06 M⁻¹ s⁻¹
same,Kd,[4],0.046 ± 0.019 µM
same,dH (van't Hoff),[5],-46 kJ/mol
